# B1: GpH7-B3 variant E333_13S/GpL16-k0 (Ho Ab) (antibody, human IgG1, kappa)
# heavy: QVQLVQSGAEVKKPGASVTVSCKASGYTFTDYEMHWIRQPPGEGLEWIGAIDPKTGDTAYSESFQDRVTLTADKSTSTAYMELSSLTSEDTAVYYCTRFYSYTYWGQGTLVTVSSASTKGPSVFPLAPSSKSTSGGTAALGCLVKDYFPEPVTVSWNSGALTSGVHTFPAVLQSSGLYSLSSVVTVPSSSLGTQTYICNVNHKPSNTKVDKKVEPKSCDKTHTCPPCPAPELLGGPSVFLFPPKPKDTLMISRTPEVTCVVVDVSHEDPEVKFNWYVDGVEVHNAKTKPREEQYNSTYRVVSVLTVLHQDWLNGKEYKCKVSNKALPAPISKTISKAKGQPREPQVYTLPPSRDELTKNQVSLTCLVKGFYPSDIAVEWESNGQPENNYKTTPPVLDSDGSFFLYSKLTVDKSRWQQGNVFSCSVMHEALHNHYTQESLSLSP
# light: DIVMTQSPLSLPVTPGEPASISCQASESLVHSNRNTYLHWYLQKPGQSPQLLIYKVSNRFSGVPDRFSGSGSGTDFTLKISRVEAEDVGVYYCSQNTHVPPTFGQGTKVEIERTVAAPSVFIFPPSDEQLKSGTASVVCLLNNFYPREAKVQWKVDNALQSGNSQESVTEQDSKDSTYSLSSTLTLSKADYEKHKVYACEVTHQGLSSPVTKSFNRGEC
# notes: Ho Ab: alteration in both H chains
# B2: GpH7-B3 variant Q295_04F/GpL16-k0 (Ho Ab) (antibody, human IgG1, kappa)
# heavy: not shown
# light: B1 light
# notes: as for B1
# B3: GpH7-B3 variant S324_08L/GpL16-k0 (Ho Ab) (antibody, human IgG1, kappa)
# heavy: not shown
# light: B1 light
# notes: as for B1
# B4: GpH7-B3 variant G236_20W/GpL16-k0 (Ho Ab) (antibody, human IgG1, kappa)
# heavy: not shown
# light: B1 light
# notes: as for B1
# B5: GpH7-B3 variant I336_18N/GpL16-k0 (Ho Ab) (antibody, human IgG1, kappa)
# heavy: not shown
# light: B1 light
# notes: as for B1
# B6: GpH7-B3 variant S324_19Q/GpL16-k0 (Ho Ab) (antibody, human IgG1, kappa)
# heavy: not shown
# light: B1 light
# notes: as for B1
# B7: GpH7-B3 variant Q295_02A/GpL16-k0 (Ho Ab) (antibody, human IgG1, kappa)
# heavy: not shown
# light: B1 light
# notes: as for B1
# B8: GpH7-B3 variant P271_06M/GpL16-k0 (Ho Ab) (antibody, human IgG1, kappa)
# heavy: not shown
# light: B1 light
# notes: as for B1
# B9: GpH7-B3 variant S324_20W/GpL16-k0 (Ho Ab) (antibody, human IgG1, kappa)
# heavy: not shown
# light: B1 light
# notes: as for B1
# B10: GpH7-B3 variant S298_19Q/GpL16-k0 (Ho Ab) (antibody, human IgG1, kappa)
# heavy: not shown
# light: B1 light
# notes: as for B1
# B11: GpH7-B3 variant S298_15Y/GpL16-k0 (Ho Ab) (antibody, human IgG1, kappa)
# heavy: not shown
# light: B1 light
# notes: as for B1
# B12: GpH7-B3 variant Q295_05P/GpL16-k0 (Ho Ab) (antibody, human IgG1, kappa)
# heavy: not shown
# light: B1 light
# notes: as for B1
# B13: GpH7-B3 variant Q295_07I/GpL16-k0 (Ho Ab) (antibody, human IgG1, kappa)
# heavy: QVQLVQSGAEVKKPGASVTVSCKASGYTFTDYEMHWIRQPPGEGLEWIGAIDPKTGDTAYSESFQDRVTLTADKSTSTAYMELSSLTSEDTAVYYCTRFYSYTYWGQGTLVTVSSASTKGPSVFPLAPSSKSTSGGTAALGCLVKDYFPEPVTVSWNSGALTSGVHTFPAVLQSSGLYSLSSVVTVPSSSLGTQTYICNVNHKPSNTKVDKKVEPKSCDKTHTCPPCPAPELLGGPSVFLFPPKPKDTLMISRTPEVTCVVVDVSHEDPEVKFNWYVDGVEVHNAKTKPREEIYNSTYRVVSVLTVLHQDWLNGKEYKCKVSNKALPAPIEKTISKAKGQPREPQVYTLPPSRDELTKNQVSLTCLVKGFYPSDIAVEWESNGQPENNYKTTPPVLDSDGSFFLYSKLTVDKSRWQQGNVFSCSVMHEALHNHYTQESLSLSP
# light: B1 light
# notes: as for B1
# B14: GpH7-B3 variant S337_01G/GpL16-k0 (Ho Ab) (antibody, human IgG1, kappa)
# heavy: not shown
# light: B1 light
# notes: as for B1
# B15: GpH7-B3 variant S239_09D/GpL16-k0 (Ho Ab) (antibody, human IgG1, kappa)
# heavy: not shown
# light: B1 light
# notes: Ho Ab: alteration in both H chains; also called GpH7-B3-06-09D/GpL16-k0
# B16: GpH7-B3 variant S298_18N/GpL16-k0 (Ho Ab) (antibody, human IgG1, kappa)
# heavy: not shown
# light: B1 light
# notes: as for B1
# B17: GpH7-B3 variant P271_04F/GpL16-k0 (Ho Ab) (antibody, human IgG1, kappa)
# heavy: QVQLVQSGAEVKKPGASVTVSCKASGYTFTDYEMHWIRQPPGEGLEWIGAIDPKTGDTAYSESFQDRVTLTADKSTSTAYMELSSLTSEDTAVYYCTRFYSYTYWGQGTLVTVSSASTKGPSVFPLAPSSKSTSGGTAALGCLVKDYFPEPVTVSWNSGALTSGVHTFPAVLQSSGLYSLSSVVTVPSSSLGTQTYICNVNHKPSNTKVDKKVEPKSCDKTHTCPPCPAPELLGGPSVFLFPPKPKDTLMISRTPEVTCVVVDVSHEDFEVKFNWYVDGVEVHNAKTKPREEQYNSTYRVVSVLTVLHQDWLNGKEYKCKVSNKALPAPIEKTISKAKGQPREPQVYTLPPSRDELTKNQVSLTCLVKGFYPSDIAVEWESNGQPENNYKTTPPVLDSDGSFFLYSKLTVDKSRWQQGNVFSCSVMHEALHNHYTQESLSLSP
# light: B1 light
# notes: as for B1
# B18: GpH7-B3 variant K326_16H/GpL16-k0 (Ho Ab) (antibody, human IgG1, kappa)
# heavy: not shown
# light: B1 light
# notes: as for B1
# B19: GpH7-B3 variant K326_15Y/GpL16-k0 (Ho Ab) (antibody, human IgG1, kappa)
# heavy: not shown
# light: B1 light
# notes: as for B1
# B20: GpH7-B3 variant S324_03V/GpL16-k0 (Ho Ab) (antibody, human IgG1, kappa)
# heavy: not shown
# light: B1 light
# notes: as for B1
# B21: GpH7-B3 variant S267_01G/GpL16-k0 (Ho Ab) (antibody, human IgG1, kappa)
# heavy: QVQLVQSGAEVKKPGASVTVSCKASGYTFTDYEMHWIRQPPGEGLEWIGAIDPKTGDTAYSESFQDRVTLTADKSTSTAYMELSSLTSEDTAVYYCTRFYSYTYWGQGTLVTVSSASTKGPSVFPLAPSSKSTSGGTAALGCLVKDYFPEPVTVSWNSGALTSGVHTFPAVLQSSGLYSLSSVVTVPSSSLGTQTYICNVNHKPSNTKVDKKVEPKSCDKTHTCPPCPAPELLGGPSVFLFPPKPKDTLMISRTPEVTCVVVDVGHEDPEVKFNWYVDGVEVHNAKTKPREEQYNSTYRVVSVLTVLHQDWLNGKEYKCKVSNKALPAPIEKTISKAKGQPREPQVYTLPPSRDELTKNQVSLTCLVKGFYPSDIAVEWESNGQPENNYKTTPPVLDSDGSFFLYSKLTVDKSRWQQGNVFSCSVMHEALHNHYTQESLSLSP
# light: B1 light
# notes: as for B1
# B22: GpH7-B3 variant S298_16H/GpL16-k0 (Ho Ab) (antibody, human IgG1, kappa)
# heavy: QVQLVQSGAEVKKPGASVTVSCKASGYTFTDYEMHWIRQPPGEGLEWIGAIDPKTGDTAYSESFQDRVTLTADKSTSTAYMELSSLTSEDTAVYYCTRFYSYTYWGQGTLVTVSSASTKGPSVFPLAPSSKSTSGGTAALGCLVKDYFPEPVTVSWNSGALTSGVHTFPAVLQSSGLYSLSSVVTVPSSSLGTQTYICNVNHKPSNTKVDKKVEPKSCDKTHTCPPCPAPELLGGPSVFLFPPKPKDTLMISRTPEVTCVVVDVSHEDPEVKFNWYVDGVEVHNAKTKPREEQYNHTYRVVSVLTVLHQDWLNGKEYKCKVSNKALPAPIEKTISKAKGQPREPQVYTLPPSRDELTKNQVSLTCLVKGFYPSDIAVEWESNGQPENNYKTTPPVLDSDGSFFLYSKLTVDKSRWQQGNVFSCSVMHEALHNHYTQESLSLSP
# light: B1 light
# notes: as for B1
# B23: GpH7-B3 variant P271_07I/GpL16-k0 (Ho Ab) (antibody, human IgG1, kappa)
# heavy: not shown
# light: B1 light
# notes: as for B1
# B24: GpH7-B3 variant S298_10E/GpL16-k0 (Ho Ab) (antibody, human IgG1, kappa)
# heavy: not shown
# light: B1 light
# notes: as for B1
# B25: GpH7-B3 variant Q295_18N/GpL16-k0 (Ho Ab) (antibody, human IgG1, kappa)
# heavy: not shown
# light: B1 light
# notes: as for B1
# B26: GpH7-B3 variant P271_13S/GpL16-k0 (Ho Ab) (antibody, human IgG1, kappa)
# heavy: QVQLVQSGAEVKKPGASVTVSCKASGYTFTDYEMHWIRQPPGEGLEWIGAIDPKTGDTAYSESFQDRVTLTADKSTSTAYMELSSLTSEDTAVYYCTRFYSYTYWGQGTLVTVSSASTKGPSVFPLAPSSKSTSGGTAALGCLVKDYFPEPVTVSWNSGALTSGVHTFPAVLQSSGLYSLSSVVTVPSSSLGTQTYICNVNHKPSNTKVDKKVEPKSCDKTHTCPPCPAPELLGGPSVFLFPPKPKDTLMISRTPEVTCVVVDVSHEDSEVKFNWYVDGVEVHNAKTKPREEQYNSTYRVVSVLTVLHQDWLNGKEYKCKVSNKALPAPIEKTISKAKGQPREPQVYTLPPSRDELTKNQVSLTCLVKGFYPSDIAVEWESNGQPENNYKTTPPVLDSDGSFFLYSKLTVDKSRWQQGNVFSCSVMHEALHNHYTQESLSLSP
# light: B1 light
# notes: as for B1
# B27: GpH7-B3 variant S298_08L/GpL16-k0 (Ho Ab) (antibody, human IgG1, kappa)
# heavy: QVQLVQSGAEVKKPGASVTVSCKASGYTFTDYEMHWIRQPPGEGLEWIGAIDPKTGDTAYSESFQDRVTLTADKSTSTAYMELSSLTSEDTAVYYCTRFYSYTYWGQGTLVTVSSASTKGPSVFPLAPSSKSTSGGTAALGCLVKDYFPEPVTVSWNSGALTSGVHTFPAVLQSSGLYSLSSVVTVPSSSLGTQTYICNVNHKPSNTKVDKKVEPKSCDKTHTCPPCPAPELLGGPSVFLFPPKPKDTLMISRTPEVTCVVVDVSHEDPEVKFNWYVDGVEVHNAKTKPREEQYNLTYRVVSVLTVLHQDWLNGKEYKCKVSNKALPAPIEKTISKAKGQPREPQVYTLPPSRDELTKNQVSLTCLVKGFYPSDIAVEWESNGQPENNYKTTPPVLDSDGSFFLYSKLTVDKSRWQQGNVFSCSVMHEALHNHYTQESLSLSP
# light: B1 light
# notes: as for B1
# B28: GpH7-B3 variant K334_10E/GpL16-k0 (Ho Ab) (antibody, human IgG1, kappa)
# heavy: not shown
# light: B1 light
# notes: as for B1
# B29: GpH7-B3 variant I336_06M/GpL16-k0 (Ho Ab) (antibody, human IgG1, kappa)
# heavy: not shown
# light: B1 light
# notes: as for B1
# B30: GpH7-B3 variant Q295_03V/GpL16-k0 (Ho Ab) (antibody, human IgG1, kappa)
# heavy: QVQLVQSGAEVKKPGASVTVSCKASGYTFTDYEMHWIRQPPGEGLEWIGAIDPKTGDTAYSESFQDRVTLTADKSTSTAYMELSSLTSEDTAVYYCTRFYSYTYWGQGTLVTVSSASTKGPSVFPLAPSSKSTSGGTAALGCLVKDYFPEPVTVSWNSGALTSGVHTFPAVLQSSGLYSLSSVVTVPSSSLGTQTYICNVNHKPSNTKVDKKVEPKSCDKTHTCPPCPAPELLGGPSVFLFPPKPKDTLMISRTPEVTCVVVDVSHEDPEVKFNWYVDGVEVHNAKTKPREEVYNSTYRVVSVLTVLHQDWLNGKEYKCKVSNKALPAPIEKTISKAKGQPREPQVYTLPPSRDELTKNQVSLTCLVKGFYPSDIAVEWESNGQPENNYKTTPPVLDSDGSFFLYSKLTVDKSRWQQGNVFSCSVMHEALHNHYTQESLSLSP
# light: B1 light
# notes: as for B1
# B31: GpH7-B3 variant I336_01G/GpL16-k0 (Ho Ab) (antibody, human IgG1, kappa)
# heavy: not shown
# light: B1 light
# notes: as for B1
# B32: GpH7-B3 variant S267_09D/GpL16-k0 (Ho Ab) (antibody, human IgG1, kappa)
# heavy: not shown
# light: B1 light
# notes: as for B1
# B33: GpH7-B3 variant P271_20W/GpL16-k0 (Ho Ab) (antibody, human IgG1, kappa)
# heavy: not shown
# light: B1 light
# notes: as for B1
# B34: GpH7-B3 variant S337_03V/GpL16-k0 (Ho Ab) (antibody, human IgG1, kappa)
# heavy: not shown
# light: B1 light
# notes: as for B1
# B35: GpH7-B3 variant S298_07I/GpL16-k0 (Ho Ab) (antibody, human IgG1, kappa)
# heavy: not shown
# light: B1 light
# notes: as for B1
# B36: GpH7-B3 variant Q295_14T/GpL16-k0 (Ho Ab) (antibody, human IgG1, kappa)
# heavy: not shown
# light: B1 light
# notes: as for B1
# B37: GpH7-B3 variant S324_14T/GpL16-k0 (Ho Ab) (antibody, human IgG1, kappa)
# heavy: not shown
# light: B1 light
# notes: as for B1
# B38: GpH7-B3 variant S324_02A/GpL16-k0 (Ho Ab) (antibody, human IgG1, kappa)
# heavy: not shown
# light: B1 light
# notes: as for B1
# B39: GpH7-B3 variant S298_14T/GpL16-k0 (Ho Ab) (antibody, human IgG1, kappa)
# heavy: not shown
# light: B1 light
# notes: as for B1
# B40: GpH7-B3 variant S267_02A/GpL16-k0 (Ho Ab) (antibody, human IgG1, kappa)
# heavy: not shown
# light: B1 light
# notes: as for B1
# B41: GpH7-B3 variant S267_03V/GpL16-k0 (Ho Ab) (antibody, human IgG1, kappa)
# heavy: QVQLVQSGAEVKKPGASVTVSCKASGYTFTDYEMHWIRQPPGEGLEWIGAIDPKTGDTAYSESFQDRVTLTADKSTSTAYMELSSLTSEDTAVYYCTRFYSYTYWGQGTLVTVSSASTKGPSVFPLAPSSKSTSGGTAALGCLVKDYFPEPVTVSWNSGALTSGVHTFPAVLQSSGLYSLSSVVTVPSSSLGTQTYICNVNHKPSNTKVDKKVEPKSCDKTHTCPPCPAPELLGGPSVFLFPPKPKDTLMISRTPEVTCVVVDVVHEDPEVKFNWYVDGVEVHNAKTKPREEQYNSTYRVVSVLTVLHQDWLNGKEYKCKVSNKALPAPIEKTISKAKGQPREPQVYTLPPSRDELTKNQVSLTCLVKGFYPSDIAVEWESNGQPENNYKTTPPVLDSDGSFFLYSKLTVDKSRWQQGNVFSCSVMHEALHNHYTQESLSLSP
# light: B1 light
# notes: as for B1
# B42: GpH7-B3 variant Q295_13S/GpL16-k0 (Ho Ab) (antibody, human IgG1, kappa)
# heavy: not shown
# light: B1 light
# notes: as for B1
# B43: GpH7-B3 variant K326_14T/GpL16-k0 (Ho Ab) (antibody, human IgG1, kappa)
# heavy: not shown
# light: B1 light
# notes: as for B1
# B44: GpH7-B3 variant I336_04F/GpL16-k0 (Ho Ab) (antibody, human IgG1, kappa)
# heavy: not shown
# light: B1 light
# notes: as for B1
# B45: GpH7-B3 variant P271_03V/GpL16-k0 (Ho Ab) (antibody, human IgG1, kappa)
# heavy: not shown
# light: B1 light
# notes: as for B1
# B46: GpH7-B3 variant S239_01G/GpL16-k0 (Ho Ab) (antibody, human IgG1, kappa)
# heavy: not shown
# light: B1 light
# notes: as for B1
# B47: GpH7-B3 variant P271_12R/GpL16-k0 (Ho Ab) (antibody, human IgG1, kappa)
# heavy: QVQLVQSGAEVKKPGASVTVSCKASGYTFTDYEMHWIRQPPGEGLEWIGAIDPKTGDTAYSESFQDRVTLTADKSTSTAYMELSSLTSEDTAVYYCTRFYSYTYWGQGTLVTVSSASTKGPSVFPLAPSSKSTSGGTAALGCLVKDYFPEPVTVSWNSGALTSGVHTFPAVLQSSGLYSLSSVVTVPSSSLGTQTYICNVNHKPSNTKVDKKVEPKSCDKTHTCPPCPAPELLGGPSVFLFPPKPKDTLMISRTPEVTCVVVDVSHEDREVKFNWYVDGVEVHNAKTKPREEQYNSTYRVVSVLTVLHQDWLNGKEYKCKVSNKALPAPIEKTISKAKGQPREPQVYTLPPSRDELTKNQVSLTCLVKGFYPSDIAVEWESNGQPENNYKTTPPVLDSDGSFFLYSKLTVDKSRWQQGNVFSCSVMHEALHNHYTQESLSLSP
# light: B1 light
# notes: as for B1
# B48: GpH7-B3 variant I336_10E/GpL16-k0 (Ho Ab) (antibody, human IgG1, kappa)
# heavy: not shown
# light: B1 light
# notes: as for B1
# B49: GpH7-B3 variant I336_03V/GpL16-k0 (Ho Ab) (antibody, human IgG1, kappa)
# heavy: not shown
# light: B1 light
# notes: as for B1
# B50: GpH7-B3 variant P271_11K/GpL16-k0 (Ho Ab) (antibody, human IgG1, kappa)
# heavy: not shown
# light: B1 light
# notes: as for B1
# B51: GpH7-B3 variant I336_02A/GpL16-k0 (Ho Ab) (antibody, human IgG1, kappa)
# heavy: not shown
# light: B1 light
# notes: as for B1
# B52: GpH7-B3 variant S298_03V/GpL16-k0 (Ho Ab) (antibody, human IgG1, kappa)
# heavy: not shown
# light: B1 light
# notes: as for B1
# B53: GpH7-B3 variant S337_02A/GpL16-k0 (Ho Ab) (antibody, human IgG1, kappa)
# heavy: not shown
# light: B1 light
# notes: as for B1
# B54: GpH7-A5/GpH7-B3 variant P271_02A/GpL16-k0 (He Ab) (antibody, human IgG1, kappa)
# heavy 1: not shown
# heavy 2: not shown
# light: B1 light
# notes: He Ab: alteration only in the GpH7-B3 chain
# B55: GpH7-A5/GpH7-B3 variant A327_09D/GpL16-k0 (He Ab) (antibody, human IgG1, kappa)
# heavy 1: not shown
# heavy 2: not shown
# light: B1 light
# notes: as for B54
# B56: GpH7-A5/GpH7-B3 variant A330_14T/GpL16-k0 (He Ab) (antibody, human IgG1, kappa)
# heavy 1: not shown
# heavy 2: not shown
# light: B1 light
# notes: as for B54
# B57: GpH7-A5/GpH7-B3 variant E269_04F/GpL16-k0 (He Ab) (antibody, human IgG1, kappa)
# heavy 1: not shown
# heavy 2: not shown
# light: B1 light
# notes: as for B54
# B58: GpH7-A5/GpH7-B3 variant A330_09D/GpL16-k0 (He Ab) (antibody, human IgG1, kappa)
# heavy 1: not shown
# heavy 2: not shown
# light: B1 light
# notes: as for B54
# B59: GpH7-A5/GpH7-B3 variant A330_08L/GpL16-k0 (He Ab) (antibody, human IgG1, kappa)
# heavy 1: not shown
# heavy 2: not shown
# light: B1 light
# notes: as for B54
# Target: T1, FcγRIa extracellular domain with C-terminal His tag (human, UniProt P12314 16-292)
# T1 construct: extracellular domain; Expressed in FreeStyle293 cells; analyte in Biacore; also called FcgRI; FcgRIa
# Experiment: SPR Biacore, antibody captured, FcγRIa analyte; vs GpH7-B3/GpL16-k0 = 100
# T1 sequence (P12314 16-292): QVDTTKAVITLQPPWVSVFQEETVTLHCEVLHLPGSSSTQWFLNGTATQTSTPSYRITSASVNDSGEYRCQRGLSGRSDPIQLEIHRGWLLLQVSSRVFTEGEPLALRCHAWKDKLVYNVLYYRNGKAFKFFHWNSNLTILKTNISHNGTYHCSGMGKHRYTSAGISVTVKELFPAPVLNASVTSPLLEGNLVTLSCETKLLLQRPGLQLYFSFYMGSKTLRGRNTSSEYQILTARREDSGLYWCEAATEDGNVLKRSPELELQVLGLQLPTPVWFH
row,Ho/Con_1a,Binder
1,101 relative (control = 100),B1
2,100 relative (control = 100),B2
3,103 relative (control = 100),B3
4,104 relative (control = 100),B4
5,104 relative (control = 100),B5
6,111 relative (control = 100),B6
7,104 relative (control = 100),B7
8,102 relative (control = 100),B8
9,112 relative (control = 100),B9
10,105 relative (control = 100),B10
11,103 relative (control = 100),B11
12,101 relative (control = 100),B12
13,101 relative (control = 100),B13
14,102 relative (control = 100),B14
15,101 relative (control = 100),B15
16,104 relative (control = 100),B16
17,100 relative (control = 100),B17
18,101 relative (control = 100),B18
19,101 relative (control = 100),B19
20,103 relative (control = 100),B20
21,102 relative (control = 100),B21
22,107 relative (control = 100),B22
23,102 relative (control = 100),B23
24,106 relative (control = 100),B24
25,101 relative (control = 100),B25
26,101 relative (control = 100),B26
27,104 relative (control = 100),B27

row,Ho/Con_1a,Binder
1,107 relative (control = 100),B28
2,104 relative (control = 100),B29
3,102 relative (control = 100),B30
4,104 relative (control = 100),B31
5,106 relative (control = 100),B32
6,102 relative (control = 100),B33
7,105 relative (control = 100),B34
8,103 relative (control = 100),B35
9,102 relative (control = 100),B36
10,112 relative (control = 100),B37
11,103 relative (control = 100),B38
12,106 relative (control = 100),B39
13,108 relative (control = 100),B40
14,102 relative (control = 100),B41
15,101 relative (control = 100),B42
16,103 relative (control = 100),B43
17,104 relative (control = 100),B44
18,102 relative (control = 100),B45
19,101 relative (control = 100),B46
20,101 relative (control = 100),B47
21,107 relative (control = 100),B48
22,105 relative (control = 100),B49
23,101 relative (control = 100),B50
24,103 relative (control = 100),B51
25,106 relative (control = 100),B52
26,103 relative (control = 100),B53

# Target: T1, FcγRIa extracellular domain with …
# Experiment: SPR Biacore, antibody captured, FcγRIa analyte; vs GpH7-A5/GpH7-B3/GpL16-k0 = 100
row,He/Con_1a,Binder
1,104 relative (control = 100),B54
2,103 relative (control = 100),B55
3,105 relative (control = 100),B56
4,103 relative (control = 100),B57
5,109 relative (control = 100),B58
6,107 relative (control = 100),B59
